Source: paper PMC2816676, “DNA Binding of Centromere Protein C (CENPC) Is Stabilized by Single-Stranded RNA”

T1: CENPC full length (Zea mays) (UniProt Q9XHE1)
T1 sequence: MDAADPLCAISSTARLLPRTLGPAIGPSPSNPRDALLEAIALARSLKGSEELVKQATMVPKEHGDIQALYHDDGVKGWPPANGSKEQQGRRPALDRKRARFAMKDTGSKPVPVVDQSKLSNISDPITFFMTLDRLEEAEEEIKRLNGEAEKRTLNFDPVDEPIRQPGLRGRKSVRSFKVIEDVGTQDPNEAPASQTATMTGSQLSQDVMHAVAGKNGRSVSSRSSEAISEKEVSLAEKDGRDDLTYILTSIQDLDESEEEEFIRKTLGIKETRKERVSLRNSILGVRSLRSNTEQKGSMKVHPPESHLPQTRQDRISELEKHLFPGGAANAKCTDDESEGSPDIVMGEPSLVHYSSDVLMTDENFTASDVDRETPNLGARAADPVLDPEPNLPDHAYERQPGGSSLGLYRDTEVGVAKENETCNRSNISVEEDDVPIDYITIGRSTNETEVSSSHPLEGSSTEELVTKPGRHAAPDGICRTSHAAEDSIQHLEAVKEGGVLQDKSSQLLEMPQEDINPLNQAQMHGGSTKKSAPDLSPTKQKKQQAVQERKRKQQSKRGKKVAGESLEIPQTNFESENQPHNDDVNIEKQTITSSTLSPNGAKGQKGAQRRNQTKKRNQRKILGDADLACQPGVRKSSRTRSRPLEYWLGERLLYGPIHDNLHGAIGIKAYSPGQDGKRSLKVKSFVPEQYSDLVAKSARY

T2: CENPC exon 1-8 (Zea mays, UniProt Q9XHE1 1-502)
T2 sequence: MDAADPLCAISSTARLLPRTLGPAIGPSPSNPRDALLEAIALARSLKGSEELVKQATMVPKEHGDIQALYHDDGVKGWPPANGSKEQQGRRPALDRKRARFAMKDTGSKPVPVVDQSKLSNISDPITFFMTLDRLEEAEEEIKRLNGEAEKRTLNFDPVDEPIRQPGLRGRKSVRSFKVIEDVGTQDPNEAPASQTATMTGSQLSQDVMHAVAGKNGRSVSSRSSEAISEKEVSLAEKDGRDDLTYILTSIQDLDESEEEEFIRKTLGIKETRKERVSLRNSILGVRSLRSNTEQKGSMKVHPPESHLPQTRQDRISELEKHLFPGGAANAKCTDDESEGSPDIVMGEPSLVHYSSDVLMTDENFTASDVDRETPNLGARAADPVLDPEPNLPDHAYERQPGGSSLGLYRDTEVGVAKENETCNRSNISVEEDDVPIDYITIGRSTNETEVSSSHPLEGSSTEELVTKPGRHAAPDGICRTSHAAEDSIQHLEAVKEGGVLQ

T3: CENPC exon 1-5.7 (Zea mays, UniProt Q9XHE1 1-399)
T3 sequence: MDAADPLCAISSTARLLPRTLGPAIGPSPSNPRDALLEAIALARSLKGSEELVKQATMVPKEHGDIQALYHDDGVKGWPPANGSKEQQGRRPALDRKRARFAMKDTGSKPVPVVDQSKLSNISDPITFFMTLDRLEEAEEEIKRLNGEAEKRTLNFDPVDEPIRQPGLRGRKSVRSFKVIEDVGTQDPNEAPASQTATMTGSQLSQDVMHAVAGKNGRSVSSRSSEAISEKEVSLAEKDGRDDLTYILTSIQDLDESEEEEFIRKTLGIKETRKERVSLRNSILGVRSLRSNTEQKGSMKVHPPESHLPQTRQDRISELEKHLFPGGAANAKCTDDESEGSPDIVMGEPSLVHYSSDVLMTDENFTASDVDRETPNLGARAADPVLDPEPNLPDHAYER

T4: CENPC Δexon 9-12 (Zea mays, UniProt Q9XHE1 1-701, del503-624)
T4 sequence: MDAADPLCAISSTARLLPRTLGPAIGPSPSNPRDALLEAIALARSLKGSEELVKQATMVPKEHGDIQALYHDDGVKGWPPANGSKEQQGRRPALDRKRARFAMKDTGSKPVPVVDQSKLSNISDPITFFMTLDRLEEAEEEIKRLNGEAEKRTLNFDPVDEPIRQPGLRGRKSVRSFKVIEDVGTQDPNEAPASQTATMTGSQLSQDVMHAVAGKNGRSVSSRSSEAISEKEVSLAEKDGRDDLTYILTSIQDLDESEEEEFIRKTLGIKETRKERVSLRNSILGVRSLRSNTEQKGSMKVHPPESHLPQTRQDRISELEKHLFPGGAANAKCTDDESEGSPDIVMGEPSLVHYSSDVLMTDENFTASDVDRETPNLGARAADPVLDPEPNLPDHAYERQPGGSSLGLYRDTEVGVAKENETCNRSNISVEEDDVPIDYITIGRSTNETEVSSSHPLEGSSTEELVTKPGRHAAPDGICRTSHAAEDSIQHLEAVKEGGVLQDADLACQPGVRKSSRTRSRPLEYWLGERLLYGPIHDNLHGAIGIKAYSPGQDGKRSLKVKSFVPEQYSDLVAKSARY

B1: CentC 44 bp DSDNA (dsDNA)
DNA 1: AATGGGTGACGTGCGGCAACGAAATTGCGCGAAACCACCCCAAA
DNA 2: TTTGGGGTGGTTTCGCGCAATTTCGTTGCCGCACGTCACCCATT

Columns and labels:
[1] = target: T1, CENPC full length (Zea mays); experiment: EMSA; settings: 10 mM Tris pH 7.5, 50 mM NaCl, 0.5 mM DTT, 0.5 mM EDTA, 1 mM MgCl2, 4% glycerol, 20 µl, on ice 20 min; 5% PAGE
[2] = target: T2, CENPC exon 1-8; experiment: EMSA; 10 mM Tris pH 7.5, 50 mM NaCl, 0.5 mM DTT, 0.5 mM EDTA, 1 mM MgCl2, 4% glycerol, 20 µl, on ice 20 min; 5% PAGE; settings: protein: recombinant; tags: His (pET28a); blunt
[3] = target: T3, CENPC exon 1-5.7; experiment: as above; settings: protein: recombinant; tags: His (pET28a); blunt
[4] = target: T4, CENPC Δexon 9-12; experiment: as above; settings: protein: recombinant; tags: His (pET28a); blunt
[5] = target: HIV integrase DNA-binding domain (IntBD) (HIV, UniProt Q9WJL1 220-270); experiment: EMSA; no RNA; 10 mM Tris pH 7.5, 50 mM NaCl, 0.5 mM DTT, 0.5 mM EDTA, 1 mM MgCl2, 4% glycerol, 20 µl, on ice 20 min; 5% PAGE; settings: chain copies: 2; blunt

| Molecule | binding signal [1] | binding result [2] | binding result [3] | binding result [4] | binding result [5] |
| --- | --- | --- | --- | --- | --- |
| CentC 156 bp DSDNA | 95.9 % bound | – | – | – | – |
| CentC 67 bp DSDNA | 85.3 % bound | – | – | – | – |
| B1 | – | no binding | no binding | no binding | binds |
